The text below walks through data of US20090317428A1.

In the test the target is HLA-DR molecules of the human B-lymphoblastoid cell line Awells (HLA-DRB1*0401, HLA-DRB4*0101) (human). Nature of the test: cell-based or functional assay.

B1: L243 (anti-HLA-DR) (antibody, from another filing, V domains shown)
VH: QIQLVQSGPELKKPGETVKISCKASGFTFTNYGMNWVKQAPGKGLKWMGWINTYTREPTYADDFKGRFAFSLETSASTAYLQINNLKNEDTAKYFCARDITAVVPTGFDYWGQGTTLTVSS
VL: DIQMTQSPASLSVSVGETVTITCRASENIYSNLAWYRQKQGKSPQLLVFAASNLADGVPSRFSGSGSGTQYSLKINSLQSEDFGDYYCQHFWTTPWAFGGGTNLEIKR
B1: the inhibition of T-helper cell line activation by Awells-Ii-cyclin D1 transfectants was found to be 71.2%.
